# Data as given in the supplement of paper PMC12764529.
# ± gives the half width of the 95% confidence interval.
# Legend:
# [1] = folding stability dG unfold from trypsin proteolysis; higher = more stable
# Method in brief: (§1)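 How resistant each design was to proteolysis was captured as K50, inferred by Bayesian fitting of sequencing counts. Unfolding free energy was then derived relative to a sequence-predicted unfolded-state K50 and a shared folded-state K50, per protease or combined. Digestion used trypsin and chymotrypsin at 11 threefold-diluted concentrations plus a no-protease condition, on mini-proteins under 80 residues without cysteine in a PA-tagged cDNA display construct. Designs were kept only when AlphaFold2 dimer inter-PAE was above 15.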
# [2] = folding stability dG unfold (combined trypsin and chymotrypsin); higher = more stable
# Method in brief: as §1
# [3] = folding stability dG unfold from chymotrypsin proteolysis; higher = more stable
# Method in brief: as §1
Sequence,folding stability dG unfold [1] [kcal/mol],folding stability dG unfold [2] [kcal/mol],folding stability dG unfold [3] [kcal/mol]
SAGGSAGGSAGKKITLPNATITYDEETGEVTITVDGKTITLPPGAKIEVDENGNLTIYLPSAGGSAGGSAGG [r17_34_TrROS_Hall],2.45 ± 0.1,2.55 ± 0.12,2.71 ± 0.075
SAGGSAGGSAGSPMSAEEVEERLREELRRELGPDYTVTVTVTEVLPEGVYVVSVTVTGPASAGGSAGGSAGG [r11_153_JUSTAS],2.49 ± 0.14,2.21 ± 0.099,1.96 ± 0.028
SASLVVRLPDGTEILFENLSLEEVVKLFDGGEIEIEPVPKLPVVNASSLEEAEEIAEKLKPDFVITLSGSAG [r14_445_TrMRF],1.6 ± 0.088,1.61 ± 0.074,1.6 ± 0.044
SAGGSAGGSKIKPGEKVEIKLKIKVKDKNGKEKEIELTFSKDMTVEEIKKLLKELEKKGFEIESAGGSAGGS [r20_27_TrROS_Hall],1.56 ± 0.12,2.72 ± 0.33,3.23 ± 0.24
SLDKARDILREHGMEPTSIDVVEDGWVKVTWEYPGNKVEIFIPEDGNIMIEFRNPNNGQRVERTIPVDDVSA [r9_2_TrROS],-0.489 ± 0.2,0.472 ± 0.15,0.753 ± 0.14
SAGGSAGGSAGGMVIRLEDGRTLVFETREEAEEAAKALAEELGLKEVKVEIVEVPLEELPSAGGSAGGSAGG [r7_839_TrROS_Hall],2.11 ± 0.073,2.4 ± 0.045,2.6 ± 0.032
SAGGSAGGSYLDPNKVYLVETEVVGDKVVFTLRDPETGETFVLEADASKEVLKPGDRVLALVASAGGSAGGS [r12_525_TrMRF],1.47 ± 0.047,1.82 ± 0.12,1.97 ± 0.065
SAGGSAGGSEPEEPEYILIERVEAGEKPKITITFKDGTKKEIEVKPGETILIKVPKDAKIEVESAGGSAGGS [r12_553_TrROS_Hall],0.983 ± 0.067,0.94 ± 0.2,1.1 ± 0.13
SAGGSAGGSAGLTKPVEVEVEEDGTVTIKTLSIVPVDDGYELHEETTEIPLSPEEIAALQSAGGSAGGSAGG [r17_415_JUSTAS],0.504 ± 0.035,0.327 ± 0.17,-0.158 ± 0.33
SAGGSSYSVAQSPGPARLYSVPQPDGRVVEVDVEELPGGLLRVRVPDDPVPRLFPASLSLADIVSLSAGGSA [r2_338_JUSTAS],0.644 ± 0.02,0.866 ± 0.032,0.933 ± 0.046
SAGGSAGGEIRERLRELIEQLPEEELVVRIRRNGEEVELTFRTREDLEAALEANPEAEIEIVRRSAGGSAGG [r6_421_TrROS_Hall],2.02 ± 0.023,3 ± 0.058,3.35 ± 0.037
SAMIEIPFSPDTPVEERLAMIKEAIEAAKAAGIEPKEITLIVPPDREDILEAVEEAGIPKERVKIKDQPSAG [r14_589_JUSTAS],0.789 ± 0.045,1.24 ± 0.07,1.49 ± 0.057
SAGMKPGEPITLVLPDGVVIPIKINPNGGVEIDDIEPPPDGTYNMDARHPNNGKEITLNIKLPPGFQILSAG [r5_394_TrROS],1.93 ± 0.13,0.95 ± 0.43,0.239 ± 0.77
SAGKEKEVKEVTIKIKIYVTNKNGEKKEITIEVKAKNKEDLLEALKKLGLSVEELKEKFPNIKIVEIEPSAG [r5_430_TrROS_Hall],2.3 ± 0.22,4.01 ± 0.55,4.05 ± 0.22
SAGGMTLEITFPPNVKKVRVEFDEETNEVKVEVEEVDGELVIRVEVPPGQELSEEELERLKKLLEELSAGGS [r16_359_TrROS_Hall],1.34 ± 0.037,1.65 ± 0.083,1.79 ± 0.072
SAGGSAGGDKAVIVDFNPIEPEAVIYFPKTGKAIKFKFDSLEELRDSIEPSGIPVEIVITPPELSAGGSAGG [r6_27_TrMRF],-0.138 ± 0.19,0.141 ± 0.19,0.196 ± 0.25
SAGKTIVVPTEEEAEKLAKELAEETGKEVEIVKVEKEKKKDGYEVYTIKVKLKDNNKTIEIKIVRPKEKSAG [r5_173_TrROS_Hall],1.52 ± 0.17,1.55 ± 0.25,1.47 ± 0.11
